In FireProtDB (doi:10.1016/0022-2836(74)90188-0):

Conditions: Bos taurus, Thermal, DSC, glycine 0.04 M, reversible: yes(>90%)

Chain of Cytochrome c wild type, P62894 (P62894 whole entry): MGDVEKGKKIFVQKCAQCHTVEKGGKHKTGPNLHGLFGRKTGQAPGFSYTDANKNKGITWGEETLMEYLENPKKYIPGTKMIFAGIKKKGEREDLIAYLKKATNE

Cytochrome c wild type, P62894
Tm (pH 2.81): 52.5 °C
unfolding enthalpy (calorimetric) (pH 2.81): 251 kJ/mol
Tm (pH 2.92): 54 °C
heat capacity change of unfolding (pH 2.92): 1.43 kcal/mol/K
unfolding enthalpy (calorimetric) (pH 2.92): 272 kJ/mol
Tm (pH 3.05): 59 °C
heat capacity change of unfolding (pH 3.05): 1.48 kcal/mol/K
unfolding enthalpy (calorimetric) (pH 3.05): 294 kJ/mol
Tm (pH 3.12): 61 °C
heat capacity change of unfolding (pH 3.12): 1.53 kcal/mol/K
unfolding enthalpy (calorimetric) (pH 3.12): 311 kJ/mol
Tm (pH 3.18): 62 °C
heat capacity change of unfolding (pH 3.18): 1.36 kcal/mol/K
unfolding enthalpy (calorimetric) (pH 3.18): 322 kJ/mol
Tm (pH 3.4): 66 °C
heat capacity change of unfolding (pH 3.4): 1.48 kcal/mol/K
unfolding enthalpy (calorimetric) (pH 3.4): 354 kJ/mol
Tm (pH 3.75): 70 °C
heat capacity change of unfolding (pH 3.75): 1.7 kcal/mol/K
unfolding enthalpy (calorimetric) (pH 3.75): 391 kJ/mol
Tm (pH 3.94): 72 °C
heat capacity change of unfolding (pH 3.94): 1.65 kcal/mol/K
unfolding enthalpy (calorimetric) (pH 3.94): 403 kJ/mol
Tm (pH 4.52): 77 °C
heat capacity change of unfolding (pH 4.52): 1.48 kcal/mol/K
unfolding enthalpy (calorimetric) (pH 4.52): 431 kJ/mol
Tm (pH 4.83): 78 °C
heat capacity change of unfolding (pH 4.83): 1.53 kcal/mol/K
unfolding enthalpy (calorimetric) (pH 4.83): 447 kJ/mol
